Test results taken from the supplement of paper PMC10201428.
± gives the standard deviation of the averaged measurements.

Assays:
[1] = system: VchCAST RNA-guided transposition machinery (E. coli BL21(DE3) host, lacZ target); assay: relative integration efficiency (T-LR orientation) vs wild-type transposon end (log2 (normalized fold change)); transposon end mutated: right end (5 bp flank + 75 bp right end); higher = more efficient transposition
How it was run: (§1)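 Barcoded pools of 1549 left-end or 1849 right-end transposon variants were cloned into a pUC57 mini-transposon donor. Each pool was co-transformed with a T7-driven effector plasmid (CRISPR array, tniQ-cas8-cas7-cas6, tnsA-tnsB-tnsC) into E. coli BL21(DE3) and plated with 0.1 mM IPTG at 37°C for 18 h. Input plasmids and genomic integration junctions were PCR-amplified and Illumina-sequenced, with two biological output replicates and four wild-type barcodes as reference. Relative integration efficiency is output/input barcode abundance fold change, normalised to wild-type barcodes and log-transformed.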

[2] = system: VchCAST RNA-guided transposition machinery (E. coli BL21(DE3) host, lacZ target); assay: relative integration efficiency (T-RL orientation) vs wild-type transposon end (log2 (normalized fold change)); transposon end mutated: right end (5 bp flank + 75 bp right end); higher = more efficient transposition
How it was run: as §1

Sequence | relative integration efficiency (log2) [1] | relative integration efficiency (log2) [2]
ACATTTGTTGATACAACCATAAAATGATAATTACACCCATAAATTGATAATGCTCACACCCATAAATTGATATTGCCTCTGATCATAGTCAGACCAACATTGCTACGACCCGTATTCGCACCGACAC | 0.654 ± 0.025 | -0.488 ± 0.1
ACATTTGTTGATACAACCATAAAATGATAATTACACCCATAAATTGATAATTAAAACACCCATAAATTGATATTGCCTCTGATCATAGTCAGACCAACATTGCTACGACCCGTATTCGCACCGACAC | 0.089 ± 0.23 | -0.399 ± 0.27
ACATTTGTTGATACAACCATAAAATGATAATTACACCCATAAATTGATAATTAAGACACCCATAAATTGATATTGCCTCTGATCATAGTCAGACCAACATTGCTACGACCCGTATTCGCACCGACAC | -0.137 ± 0.32 | -0.306 ± 0.23
ACATTTGTTGATACAACCATAAAATGATAATTACACCCATAAATTGATAATTAAGTGACCCATAAATTGATATTGCCTCTGATCATAGTCAGACCAACATTGCTACGACCCGTATTCGCACCGACAC | 0.91 ± 0.58 | -0.484 ± 0.16
ACATTTGTTGATACAACCATAAAATGATAATTACACCCATAAATTGATAATTACACCCATAAATTGATATTGCCTCTGATCATAGTCAGACCAACATTGCTACGACCCGTATTCGCACCGACACTGA | 1.39 ± 0.33 | -0.821 ± 0.28
ACATTTGTTGATACAACCATAAAATGATAATTACACCCATAAATTGATAATTACCACTCCCAATTTAACTATAACGCTCTGATCATAGTCAGACCAACATTGCTACGACCCGTATTCGCACCGACAC | 2.61 ± 0.18 | -0.782 ± 0.24
ACATTTGTTGATACAACCATAAAATGATAATTACACCCATAAATTGATAATTAGAACACCCATAAATTGATATTGCCTCTGATCATAGTCAGACCAACATTGCTACGACCCGTATTCGCACCGACAC | -0.0187 ± 0.33 | -0.195 ± 0.2
ACATTTGTTGATACAACCATAAAATGATAATTACACCCATAAATTGATAATTAGACAACCCATAAATTGATATTGCCTCTGATCATAGTCAGACCAACATTGCTACGACCCGTATTCGCACCGACAC | 0.737 ± 0.02 | -0.476 ± 0.18
ACATTTGTTGATACAACCATAAAATGATAATTACACCCATAAATTGATAATTAGACACAAACGCCCGGTCGCGGTAAGAGGATCATAGTCAGACCAACATTGCTACGACCCGTATTCGCACCGACAC | 2.66 ± 0.16 | -0.538 ± 0.21
ACATTTGTTGATACAACCATAAAATGATAATTACACCCATAAATTGATAATTATACACAAACGCCCGGTCGCGGTAAGAGGATCATAGTCAGACCAACATTGCTACGACCCGTATTCGCACCGACAC | 2.63 ± 0.19 | -1.49 ± 0.49
ACATTTGTTGATACAACCATAAAATGATAATTACACCCATAAATTGATAATTATACACCCCATAAATTGATATTGCCTCTGATCATAGTCAGACCAACATTGCTACGACCCGTATTCGCACCGACAC | 1.28 ± 0.067 | -1.07 ± 0.23
ACATTTGTTGATACAACCATAAAATGATAATTACACCCATAAATTGATAATTATACCACCCATAAATTGATATTGCCTCTGATCATAGTCAGACCAACATTGCTACGACCCGTATTCGCACCGACAC | 0.802 ± 0.067 | -0.694 ± 0.23
ACATTTGTTGATACAACCATAAAATGATAATTACACCCATAAATTGATAATTATCAAAACACCCATAAATTGATATTGCCTCTGATCATAGTCAGACCAACATTGCTACGACCCGTATTCGCACCGA | 2.29 ± 0.22 | -0.514 ± 0.17
ACATTTGTTGATACAACCATAAAATGATAATTACACCCATAAATTGATAATTATCAAACACCCATAAATTGATATTGCCTCTGATCATAGTCAGACCAACATTGCTACGACCCGTATTCGCACCGAC | 1.9 ± 0.28 | -0.252 ± 0.046
ACATTTGTTGATACAACCATAAAATGATAATTACACCCATAAATTGATAATTATCAACAAACGCCCGGTCGCGGTAAGAGGATCATAGTCAGACCAACATTGCTACGACCCGTATTCGCACCGACAC | 2.49 ± 0.05 | -0.451 ± 0.085
